Data on 1 molecule can be found in patent EP2004352B1 (Palatin Technologies, Inc., dated 2012).

Bridge positions count the residues as written; N and C are the ends.

Assay [1] concerns the target T1, human natriuretic peptide receptor A (NPRA) (human, UniProt P16066 33-1061).
T1 construct: whole, on cells; the cGMP assay used whole HEK-hNPRA cells; also called hNPRA; HEK-hNPRA cells
T1 sequence (looked up): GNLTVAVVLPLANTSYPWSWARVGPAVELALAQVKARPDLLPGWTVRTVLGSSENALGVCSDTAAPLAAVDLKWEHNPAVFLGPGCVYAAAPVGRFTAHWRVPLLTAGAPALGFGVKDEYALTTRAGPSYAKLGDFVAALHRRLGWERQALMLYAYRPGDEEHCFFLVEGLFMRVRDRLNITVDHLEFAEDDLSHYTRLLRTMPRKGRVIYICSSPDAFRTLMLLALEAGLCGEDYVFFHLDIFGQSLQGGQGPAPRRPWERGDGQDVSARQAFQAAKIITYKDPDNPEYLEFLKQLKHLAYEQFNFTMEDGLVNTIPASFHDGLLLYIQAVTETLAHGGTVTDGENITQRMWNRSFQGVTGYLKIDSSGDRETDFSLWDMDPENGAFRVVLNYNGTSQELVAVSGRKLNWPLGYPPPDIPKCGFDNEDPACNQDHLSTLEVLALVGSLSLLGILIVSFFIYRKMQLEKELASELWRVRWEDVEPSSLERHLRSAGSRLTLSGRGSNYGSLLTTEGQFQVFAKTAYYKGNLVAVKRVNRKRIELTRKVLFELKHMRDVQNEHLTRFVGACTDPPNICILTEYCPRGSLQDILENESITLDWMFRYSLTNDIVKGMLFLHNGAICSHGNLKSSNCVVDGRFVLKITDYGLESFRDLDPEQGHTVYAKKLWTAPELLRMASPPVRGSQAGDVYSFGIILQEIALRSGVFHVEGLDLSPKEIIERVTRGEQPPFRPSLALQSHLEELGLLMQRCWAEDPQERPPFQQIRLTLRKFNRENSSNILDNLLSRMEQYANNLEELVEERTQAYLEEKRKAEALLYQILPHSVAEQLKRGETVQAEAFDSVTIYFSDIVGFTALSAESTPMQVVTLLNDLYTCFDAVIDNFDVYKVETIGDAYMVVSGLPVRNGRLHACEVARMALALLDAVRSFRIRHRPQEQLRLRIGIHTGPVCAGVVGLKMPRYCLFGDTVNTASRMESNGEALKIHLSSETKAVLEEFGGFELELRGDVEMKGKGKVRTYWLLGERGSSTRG
In words: competition with [125I]-ANP on HEK-hNPRA membrane homogenates.

Assay [2] addresses T1, human natriuretic peptide receptor A …. In words: cell-based or functional assay.

B1: mini-ANP, H-Met-cyclo(Cys-His-Phe-Gly-Gly-Arg-Met-Asp-Arg-Ile-Ser-Cys)-Tyr-Arg-NH2 (peptide)
peptide: H-MCHFGGRMDRISCYR-NH2
modifications: disulfide 2-13
SMILES: CC[C@H](C)[C@@H]1NC(=O)[C@H](CCCNC(=N)N)NC(=O)[C@H](CC(=O)O)NC(=O)[C@H](CCSC)NC(=O)[C@H](CCCNC(=N)N)NC(=O)CNC(=O)CNC(=O)[C@H](Cc2ccccc2)NC(=O)[C@H](Cc2c[nH]cn2)NC(=O)[C@@H](NC(=O)[C@@H](N)CCSC)CSSC[C@@H](C(=O)N[C@@H](Cc2ccc(O)cc2)C(=O)N[C@@H](CCCNC(=N)N)C(N)=O)NC(=O)[C@H](CO)NC1=O
notes: also called min-ANP; parent polypeptide
For orientation: Ki means a measure of affinity in units of concentration, obtained from inhibition or displacement. Read a low Ki as a stronger hold on the target. With B1, in assay [1], the affinity corresponds to a Ki of 0.6 nM. Moreover, in assay [2], the “EC50 (cGMP accumulation)” value was 3.3 nM.
